target: soluble HA-tagged canine SLAM (UniProt Q95MM9); settings: parent: est. 100; read off a plot

Question: Which percent of parent does the source give for “CDV H-wt, full length attachment protein (hemagglutinin) H of canine distemper virus strain A75/17, FLAG-tagged R129A” here?
Answer: 110 % to control

Question: Which percent of parent does the source give for “CDV H-wt, full length attachment protein (hemagglutinin) H of canine distemper virus strain A75/17, FLAG-tagged N128A” here?
Answer: 84 % to control

Question: How did the percent of parent turn out when “CDV H-wt, full length attachment protein (hemagglutinin) H of canine distemper virus strain A75/17, FLAG-tagged F131A” was run?
Answer: 93 % to control

Question: Which percent of parent does the source give for “CDV H-wt, full length attachment protein (hemagglutinin) H of canine distemper virus strain A75/17, FLAG-tagged P127A” here?
Answer: 61 % to control

Question: “CDV H-wt, full length attachment protein (hemagglutinin) H of canine distemper virus strain A75/17, FLAG-tagged W138A” was tested. Which percent of parent did it give?
Answer: 98 % to control

Question: “CDV H-wt, full length attachment protein (hemagglutinin) H of canine distemper virus strain A75/17, FLAG-tagged N126A” was tested. Which percent of parent did it give?
Answer: 94 % to control

Question: How did the percent of parent turn out when “CDV H-wt, full length attachment protein (hemagglutinin) H of canine distemper virus strain A75/17, FLAG-tagged F133A” was run?
Answer: 160 % to control

Question: For “CDV H-wt, full length attachment protein (hemagglutinin) H of canine distemper virus strain A75/17, FLAG-tagged R134A”, which percent of parent is on record?
Answer: 110 % to control

Question: For “CDV H-wt, full length attachment protein (hemagglutinin) H of canine distemper virus strain A75/17, FLAG-tagged H137A”, which percent of parent is on record?
Answer: 86 % to control

Question: With “CDV H-wt, full length attachment protein (hemagglutinin) H of canine distemper virus strain A75/17, FLAG-tagged D135A” as the substance, how does the percent of parent read?
Answer: 130 % to control

Question: With “CDV H-wt, full length attachment protein (hemagglutinin) H of canine distemper virus strain A75/17, FLAG-tagged D132A” as the substance, how does the percent of parent read?
Answer: 98 % to control

Question: For “CDV H-wt, full length attachment protein (hemagglutinin) H of canine distemper virus strain A75/17, FLAG-tagged E130A”, which percent of parent is on record?
Answer: 54 % to control

Question: For “CDV H-wt, full length attachment protein (hemagglutinin) H of canine distemper virus strain A75/17, FLAG-tagged L136A”, which percent of parent is on record?
Answer: 70 % to control

Source: paper PMC4422687
